B1: Daratumumab (antibody, V domains shown)
VH: EVQLLESGGGLVQPGGSLRLSCAVSGFTFNSFAMSWVRQAPGKGLEWVSAISGSGGGTYYADSVKGRFTISRDNSKNTLYLQMNSLRAEDTAVYFCAKDKILWFGEPVFDYWGQGTLVTVSS
VL: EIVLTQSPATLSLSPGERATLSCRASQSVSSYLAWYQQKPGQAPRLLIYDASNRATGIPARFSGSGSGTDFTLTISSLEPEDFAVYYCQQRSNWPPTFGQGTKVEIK
B2: murine monoclonal antibody m29 (antibody, mouse IgG2b, V domains shown)
VH: QVQLQQSVSELRSPGSSVKLSCKDFDSEVFPTSYMSWVRQKPGHGFEWIGDILPNIGRIFYGEKFEDKAKLDADTVSNTAYLELTSLSSEDSAIYYCAREAYGSILGYWGQGTLVAVSA
VL: DIVMTQTPLSLPVGLGDQASISCRSSQSLLHSNGNTYLHWYLQKPGQSPKLLIYKVSNRFSGVPDRFSGSGSGTDFTLKISRVEAEDLGVYFCSQSSHLPWTFGGGTKLEIK
notes: also called mouse monoclonal antibody m29; m29 monoclonal antibody
B3: human-mouse chimeric antibody ch29G (antibody, V domains shown)
VH: B2 VH
VL: B2 VL
notes: not shown: human IgG1 heavy chain constant region; human kappa light chain constant region (C-domain)

What was measured:
[1] = target: human CD38 on cells (CHO-hCD38 / wild-type, and human tumor cell lines with positive CD38 expression) (human, UniProt P28907 1-300); test: cell-based or functional assay
[2] = target: T1, cynomolgus macaque CD38 on CHO cells (CHO-cynomolgus CD38) (cynomolgus macaque, UniProt Q5VAN0 1-301); test: flow cytometry on CHO-cynomolgus CD38 cells
T1 construct: whole, on cells; also called CHO/mkCD38; mkCD38

[3] = target: T2, recombinant cynomolgus macaque CD38-his protein (Sino Biological Inc.) (cynomolgus macaque, UniProt Q5VAN0 44-301, limits assumed); test: direct ELISA, plate coated with recombinant cynomolgus macaque CD38-his protein
T2 construct: Bought protein; also called recombinant cynomolgus macaque CD38 protein; cynomolgus macaque CD38 protein; not shown: his tag

Binder	EC50 of CDC activity, Daudi target cells, 10% rabbit serum [1]	binding result [2]	binding result [3]
B1	0.1 µg/mL	–	–
B2	~0.03 µg/mL	binds	–
B3	~0.03 µg/mL	binds	binds
